FGF23 neutralizing activity IC50 (luciferase promoter assay) data for twelve molecules are collected here from patent US20250163140A1.

Changes are numbered by the printed parent chain.

The target in this assay is Recombinant Human FGF-23 (R&D Systems, Cat No. 2604-FG-025/CF) (human) (UniProt Q9GZV9). The assay is described as follows: cell-based or functional assay.
Chain of Recombinant Human FGF-23 (R&D Systems, Cat No. 2604-FG-025/CF) (human) (Q9GZV9 25-251 limits assumed): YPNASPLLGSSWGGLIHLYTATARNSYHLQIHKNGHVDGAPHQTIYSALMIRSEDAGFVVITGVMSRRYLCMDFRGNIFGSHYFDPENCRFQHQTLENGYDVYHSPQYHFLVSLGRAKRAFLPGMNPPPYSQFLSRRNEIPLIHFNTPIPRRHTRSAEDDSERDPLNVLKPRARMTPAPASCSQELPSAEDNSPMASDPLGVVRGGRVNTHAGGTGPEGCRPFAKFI

B1: antibody D105N_G2_YTE (antibody)
heavy: QVQLVQSGAEVKKPGASVKVSCKASGYTFTNHYMHWVRQAPGQGLEWMGIINPISGSTSNAQKFQGRVTMTRDTSTSTVYMELSSLRSEDTAVYYCARDIVDAFNFWGQGTMVTVSSASTKGPSVFPLAPCSRSTSESTAALGCLVKDYFPEPVTVSWNSGALTSGVHTFPAVLQSSGLYSLSSVVTVPSSNFGTQTYTCNVDHKPSNTKVDKTVERKCCVECPPCPAPPVAGPSVFLFPPKPKDTLYITREPEVTCVVVDVSHEDPEVQFNWYVDGVEVHNAKTKPREEQFNSTFRVVSVLTVVHQDWLNGKEYKCKVSNKGLPAPIEKTISKTKGQPREPQVYTLPPSREEMTKNQVSLTCLVKGFYPSDIAVEWESNGQPENNYKTTPPMLDSDGSFFLYSKLTVDKSRWQQGNVFSCSVMHEALHNHYTQKSLSLSPGK
light: AIQLTQSPSSLSASVGDRVTITCRASQGISSALVWYQQKPGKAPKLLIYDASSLESGVPSRFSGSGSGTDFTLTISSLQPEDFATYYCQQFNDYFTFGPGTKVDIK
Consider B1, for which the FGF23 neutralizing activity IC50 (luciferase promoter assay) was 12.4 ng/mL.

B2: antibody I100Y_IgG4PE_R409K_LS (antibody)
heavy: QVQLVQSGAEVKKPGASVKVSCKASGYTFTNHYMHWVRQAPGQGLEWMGIINPISGSTSNAQKFQGRVTMTRDTSTSTVYMELSSLRSEDTAVYYCARDYVDAFDFWGQGTMVTVSSASTKGPSVFPLAPCSRSTSESTAALGCLVKDYFPEPVTVSWNSGALTSGVHTFPAVLQSSGLYSLSSVVTVPSSSLGTKTYTCNVDHKPSNTKVDKRVESKYGPPCPPCPAPEFEGGPSVFLFPPKPKDTLMISRTPEVTCVVVDVSQEDPEVQFNWYVDGVEVHNAKTKPREEQFNSTYRVVSVLTVLHQDWLNGKEYKCKVSNKGLPSSIEKTISKAKGQPREPQVYTLPPSQEEMTKNQVSLTCLVKGFYPSDIAVEWESNGQPENNYKTTPPVLDSDGSFFLYSKLTVDKSRWQEGNVFSCSVLHEALHSHYTQKSLSLSLGK
light: B1 light
With B2, the FGF23 neutralizing activity IC50 (luciferase promoter assay) turned out to be 2.9 ng/mL.

B3: antibody I100Y_G2_YTE (antibody)
heavy: B1 heavy with I100Y, N105D
light: B1 light
On to B3, for which the FGF23 neutralizing activity IC50 (luciferase promoter assay) came out at 2.9 ng/mL.

B4: antibody D105N_G2_LS (antibody)
heavy: B1 heavy with Y248M, T250S, E252T, M424L, N430S
light: B1 light
As for B4, the FGF23 neutralizing activity IC50 (luciferase promoter assay) was found to be 12.4 ng/mL.

B5: antibody I100A_IgG4PE_R409K_LS (antibody)
heavy: B2 heavy with Y100A
light: B1 light
As to B5, the FGF23 neutralizing activity IC50 (luciferase promoter assay) amounted to 6.6 ng/mL.

B6: antibody I100H_IgG4PE_R409K_LS (antibody)
heavy: B2 heavy with Y100H
light: B1 light
As to B6, the FGF23 neutralizing activity IC50 (luciferase promoter assay) is 13.1 ng/mL.

B7: antibody I100A_G2_LS (antibody)
heavy: B1 heavy with I100A, N105D, Y248M, T250S, E252T, M424L, N430S
light: B1 light
As to B7, the FGF23 neutralizing activity IC50 (luciferase promoter assay) amounted to 2.4 ng/mL.

B8: antibody I100Y_G2_LS (antibody)
heavy: B1 heavy with I100Y, N105D, Y248M, T250S, E252T, M424L, N430S
light: B1 light
For B8, the FGF23 neutralizing activity IC50 (luciferase promoter assay) stood at 4.4 ng/mL.

B9: antibody I100A_G2_YTE (antibody)
heavy: B1 heavy with I100A, N105D
light: B1 light
Consider B9, for which the FGF23 neutralizing activity IC50 (luciferase promoter assay) amounted to 5 ng/mL.

B10: antibody I100H_G2_YTE (antibody)
heavy: B1 heavy with I100H, N105D
light: B1 light
Regarding B10, the FGF23 neutralizing activity IC50 (luciferase promoter assay) was found to be 8.9 ng/mL.

B11: antibody I100H_G2_LS (antibody)
heavy: B1 heavy with I100H, N105D, Y248M, T250S, E252T, M424L, N430S
light: B1 light
In the case of B11, the FGF23 neutralizing activity IC50 (luciferase promoter assay) is 13 ng/mL.

B12: antibody D105N_IgG4PE_R409K_LS (antibody)
heavy: B2 heavy with Y100I, D105N
light: B1 light
Consider B12, for which the FGF23 neutralizing activity IC50 (luciferase promoter assay) worked out at 11.7 ng/mL.
